Assay results as given in PMC10333293, “Membrane recruitment of the polarity protein Scribble by the cell adhesion receptor TMIGD1” (Communications Biology, 2023).

Legend:
APC PBM (Homo sapiens) = APC PBM (Homo sapiens) (UniProt P25054); details: cited from earlier work
[1] = molecular target: T1, hScrib/PDZ3 (AA 1005-1094) (human, UniProt Q14160 1005-1094); test: ITC; peptide (900-1100 µM) titrated into PDZ domain (75 µM); 25 mM Tris-HCl pH 8.0, 150 mM NaCl, 5 mM TCEP; 25 °C; 20 injections; one-site binding model; details: both partners purified
T1 construct: Scribble, human, PDZ3 domain, AA 1005-1094; In pGEX-6P-3 or pGIL-MBP; source: E. coli BL21 (DE3) CodonPlus or pLysS, purified
T1 sequence (looked up): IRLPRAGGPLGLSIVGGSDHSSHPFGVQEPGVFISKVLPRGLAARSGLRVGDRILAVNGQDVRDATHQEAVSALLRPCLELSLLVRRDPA

hScrib/PDZ1 (AA 728-815) = molecular target: T2, hScrib/PDZ1 (AA 728-815) (human, UniProt Q14160 728-815); test: as above; details: both partners purified
T2 construct: Scribble, human, PDZ1 domain, AA 728-815; In pGEX-6P-3 or pGIL-MBP; also called PDZ domain 1 of Scrib; source: E. coli BL21 (DE3) CodonPlus or pLysS, purified
T2 sequence (Q14160 728-815): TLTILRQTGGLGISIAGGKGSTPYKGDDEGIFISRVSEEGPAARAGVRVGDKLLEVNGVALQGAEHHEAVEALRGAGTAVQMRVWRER

[2] = molecular target: T3, human Scribble PDZ domain 3 (hScrib/PDZ3, AA 1005-1094) (human, UniProt Q14160 1005-1094); test: ITC; purified PDZ domain at 75 uM against the 8-mer peptide at 900-1100 uM, 20 injections, 25 °C, 25 mM Tris-HCl pH 8.0, 150 mM NaCl, 5 mM TCEP, one-site binding model; details: both partners purified
T3 construct: human Scribble (Scrib), PDZ domain 3, residues 1005-1094; source: E. coli BL21 (DE3) CodonPlus or pLysS, purified, tag cleaved
T3 sequence (looked up): T1 sequence (looked up)

[3] = molecular target: T4, human Scribble PDZ domain 1 (hScrib/PDZ1, AA 728-815) (human, UniProt Q14160 728-815); test: as above; details: both partners purified
T4 construct: human Scribble (Scrib), PDZ domain 1, residues 728-815; source: E. coli BL21 (DE3) CodonPlus or pLysS, purified, tag cleaved
T4 sequence (Q14160 728-815): as above

Chain of APC PBM (Homo sapiens) (P25054 whole entry, looked up, the tested form may be a part): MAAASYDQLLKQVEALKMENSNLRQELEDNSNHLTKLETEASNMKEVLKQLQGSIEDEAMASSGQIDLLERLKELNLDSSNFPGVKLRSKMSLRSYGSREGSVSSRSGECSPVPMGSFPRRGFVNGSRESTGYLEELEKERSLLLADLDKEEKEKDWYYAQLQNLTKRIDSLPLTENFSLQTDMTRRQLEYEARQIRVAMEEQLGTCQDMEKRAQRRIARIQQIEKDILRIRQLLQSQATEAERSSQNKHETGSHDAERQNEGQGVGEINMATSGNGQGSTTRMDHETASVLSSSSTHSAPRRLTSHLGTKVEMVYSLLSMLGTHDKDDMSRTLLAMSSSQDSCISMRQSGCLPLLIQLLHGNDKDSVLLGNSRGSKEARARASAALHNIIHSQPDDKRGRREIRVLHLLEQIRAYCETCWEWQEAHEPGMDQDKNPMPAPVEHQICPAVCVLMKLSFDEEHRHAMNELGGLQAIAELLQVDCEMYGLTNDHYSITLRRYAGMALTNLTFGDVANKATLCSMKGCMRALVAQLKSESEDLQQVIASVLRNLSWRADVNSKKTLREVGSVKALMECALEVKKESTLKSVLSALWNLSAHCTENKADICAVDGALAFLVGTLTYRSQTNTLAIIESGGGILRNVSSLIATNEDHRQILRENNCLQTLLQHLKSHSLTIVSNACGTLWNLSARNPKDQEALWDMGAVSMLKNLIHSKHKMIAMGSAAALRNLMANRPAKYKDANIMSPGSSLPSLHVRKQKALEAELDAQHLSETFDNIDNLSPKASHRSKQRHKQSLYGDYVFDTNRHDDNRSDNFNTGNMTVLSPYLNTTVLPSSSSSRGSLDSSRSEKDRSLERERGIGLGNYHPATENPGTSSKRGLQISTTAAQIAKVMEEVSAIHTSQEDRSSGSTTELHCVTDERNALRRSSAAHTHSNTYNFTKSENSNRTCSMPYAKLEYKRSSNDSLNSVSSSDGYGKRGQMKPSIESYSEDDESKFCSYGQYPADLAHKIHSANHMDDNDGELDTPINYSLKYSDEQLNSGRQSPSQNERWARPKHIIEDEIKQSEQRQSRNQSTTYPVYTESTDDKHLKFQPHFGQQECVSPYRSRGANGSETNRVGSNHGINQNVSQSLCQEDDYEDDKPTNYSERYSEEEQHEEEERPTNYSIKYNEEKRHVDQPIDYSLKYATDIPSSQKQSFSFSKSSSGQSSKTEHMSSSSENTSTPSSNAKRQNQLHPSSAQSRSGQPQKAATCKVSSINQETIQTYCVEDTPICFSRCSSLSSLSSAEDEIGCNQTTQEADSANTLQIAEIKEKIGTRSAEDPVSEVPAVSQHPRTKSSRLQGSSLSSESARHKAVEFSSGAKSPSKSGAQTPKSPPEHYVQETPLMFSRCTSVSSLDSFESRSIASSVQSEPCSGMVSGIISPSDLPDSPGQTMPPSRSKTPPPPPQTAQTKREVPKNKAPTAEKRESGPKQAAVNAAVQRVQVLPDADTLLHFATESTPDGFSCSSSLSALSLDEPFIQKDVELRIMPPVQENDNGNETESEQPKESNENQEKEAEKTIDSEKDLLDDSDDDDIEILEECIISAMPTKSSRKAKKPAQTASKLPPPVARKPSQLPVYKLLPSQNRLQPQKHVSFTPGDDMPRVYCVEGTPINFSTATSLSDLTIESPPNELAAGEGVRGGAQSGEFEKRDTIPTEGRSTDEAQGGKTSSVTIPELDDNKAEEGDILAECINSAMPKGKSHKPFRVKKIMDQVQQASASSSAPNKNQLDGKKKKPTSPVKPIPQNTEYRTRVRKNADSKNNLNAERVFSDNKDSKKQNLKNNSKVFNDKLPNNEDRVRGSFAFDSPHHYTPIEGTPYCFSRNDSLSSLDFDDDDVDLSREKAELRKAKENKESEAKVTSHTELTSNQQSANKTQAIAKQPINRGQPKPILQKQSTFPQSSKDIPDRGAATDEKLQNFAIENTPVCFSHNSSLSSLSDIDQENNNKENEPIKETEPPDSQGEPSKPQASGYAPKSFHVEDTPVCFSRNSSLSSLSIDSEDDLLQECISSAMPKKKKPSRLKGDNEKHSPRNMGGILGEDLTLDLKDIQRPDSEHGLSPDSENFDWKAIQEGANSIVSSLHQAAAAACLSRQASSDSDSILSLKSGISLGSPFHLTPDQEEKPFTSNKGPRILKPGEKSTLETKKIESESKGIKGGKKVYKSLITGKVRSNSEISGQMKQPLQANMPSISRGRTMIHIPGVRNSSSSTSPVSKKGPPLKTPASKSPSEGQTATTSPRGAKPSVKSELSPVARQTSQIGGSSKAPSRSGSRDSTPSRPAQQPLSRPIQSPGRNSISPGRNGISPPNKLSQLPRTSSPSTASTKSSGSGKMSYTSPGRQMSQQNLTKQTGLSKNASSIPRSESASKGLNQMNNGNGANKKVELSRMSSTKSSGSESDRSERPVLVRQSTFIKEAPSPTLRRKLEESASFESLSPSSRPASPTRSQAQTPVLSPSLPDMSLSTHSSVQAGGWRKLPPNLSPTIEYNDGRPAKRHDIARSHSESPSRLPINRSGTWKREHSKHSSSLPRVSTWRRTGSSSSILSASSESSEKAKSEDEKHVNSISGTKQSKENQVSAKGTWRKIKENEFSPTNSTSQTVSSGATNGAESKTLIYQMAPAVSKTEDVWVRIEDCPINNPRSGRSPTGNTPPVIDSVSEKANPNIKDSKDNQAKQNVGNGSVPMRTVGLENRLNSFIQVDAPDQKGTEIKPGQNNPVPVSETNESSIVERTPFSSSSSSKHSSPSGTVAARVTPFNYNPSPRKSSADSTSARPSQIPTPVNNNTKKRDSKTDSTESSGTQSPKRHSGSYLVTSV

In the case of Scribble PDZ1 (from UniProt Q14160), the Kd (APC PBM (Homo sapiens)) is listed as 6 µM.

B1: C-terminally derived 8-mer human TMIGD1 peptide (DPHSETAL) (peptide)
peptide: DPHSETAL
notes: TMIGD1, human, the eight C-terminal residues with the PBM (SETAL), free C-terminal carboxyl; also called TMIGD1/WT; TMIGD1 PBM peptide; source: synthetic peptide (Genscript)
Work on B1 yielded a Kd [1] of 9.12 µM and a Kd (hScrib/PDZ1 (AA 728-815)) of 18.2 µM.

B2: C-terminally derived 8-mer human TMIGD1 peptide (peptide)
peptide: DPHSETAL
notes: also called TMIGD1/WT; TMIGD1 PBM peptide; source: synthetic peptide, obtained from Genscript
For B2, the “stoichiometry N” value [2] was 0.93 ± 0.04 and the “stoichiometry N” value [3] was 0.95 ± 0.07.
